Tests used:
Assay in all cases: purified protein
Format in all cases: biochemical, Mycosarcoma maydis
[1] = tested on: NC(=O)c1ccc[n+]([C@@H]2O[C@H](COP(=O)(O)OP(=O)(O)OC[C@H]3O[C@@H](n4cnc5c(N)ncnc54)[C@H](OP(=O)(O)O)[C@@H]3O)[C@@H](O)[C@H]2O)c1; conditions: oxidation, co-substrate D-glycerate, 40°C, assay buffer 50 mM glycine pH 8.5, pH 8.5, varied: cofactor
O=C(O)[C@H](O)CO = conditions: oxidation, 40°C, assay buffer 50 mM glycine pH 8.5, cofactor not stated for this row, pH 8.5
O=CC(O)C(=O)O = conditions: reduction, cofactor NADH, 40°C, substrate made by enolization of lithium hydroxypyruvate (about 50% conversion, quantified by HPLC)
[2] = tested on: NC(=O)C1=CN([C@@H]2O[C@H](COP(=O)(O)OP(=O)(O)OC[C@H]3O[C@@H](n4cnc5c(N)ncnc54)[C@H](O)[C@@H]3O)[C@@H](O)[C@H]2O)C=CC1; conditions: reduction, co-substrate tartronic semialdehyde, 40°C, varied: cofactor

Work on “rTsr1 (Um02592, tartronate semialdehyde reductase) (Mycosarcoma maydis; E78D)” yielded a Km [1] of 0.30 ± 0.04 µM, a Vmax [1] of 0.93 µmol/min/mg and a Km (O=C(O)[C@H](O)CO) of 17700 ± 2300 µM. It also gave a Vmax (O=C(O)[C@H](O)CO) of 1.14 µmol/min/mg, a Km (O=CC(O)C(=O)O) of 190 ± 30 µM and a Vmax (O=CC(O)C(=O)O) of 0.17 µmol/min/mg. It also gave a Km [2] of 14.29 ± 3.1 µM and a Vmax [2] of 5.07 µmol/min/mg.

— publication PMC3031564, “Tartronate Semialdehyde Reductase Defines a Novel Rate-Limiting Step in Assimilation and Bioconversion of Glycerol in Ustilago maydis” (PLoS ONE, 2011)
